Source: article PMC12583987, “Impact of Hanks Kinase‐Dependent Phosphorylation of CodY on the Physiology and Virulence in Bacillus cereus” (MicrobiologyOpen, 2025)

How the values were obtained:
Assay in all cases: SEC; Superdex 75 column on an Akta Purifier, PBS 1x, 0.5 mL/min; 75 uL (about 150 ug) of each purified protein loaded individually; column calibrated with a low molecular weight kit; oligomer size from the elution volume
[1] = target: CodY-S215A (Bacillus cereus ATCC 14579), N-terminal (His)6-tagged (Bacillus cereus ATCC 14579) (UniProt Q819X8)
[2] = target: CodY-S215D (Bacillus cereus ATCC 14579), N-terminal (His)6-tagged (Bacillus cereus ATCC 14579) (UniProt Q819X8)
[3] = target: the molecule itself

CodY-S215A (Bacillus cereus ATCC 14579), N-terminal (His)6-tagged (from UniProt Q819X8 1-259) (natural protein)
stoichiometry N [1]: 2

CodY-S215D (Bacillus cereus ATCC 14579), N-terminal (His)6-tagged (from UniProt Q819X8 1-259) (natural protein)
stoichiometry N [2]: 2

B1: CodY (Bacillus cereus ATCC 14579), N-terminal (His)6-tagged (natural protein)
chain: MELLAKTRKLNALLQSAAGKPVNFREMSDTMCEVIEANVFVVSRRGKLLGYAIHQQIENERMKQMLAERQFPEEYTQSLFNITETSSNLDVNSAYTAFPVENRELFGQGLTTIVPIVGGGERLGTLVLARLGQEFLDDDLILAEYSSTVVGMEILREKAEEIEEEARSKAVVQMAISSLSYSELEAIEHIFEELNGTEGLLVASKIADRVGITRSVIVNALRKLESAGVIESRSLGMKGTYIKVLNDKFLQELAKLKTN
notes: CodY, global transcriptional regulator of Bacillus cereus ATCC 14579; codY PCR-amplified from the chromosome with primers SAT31 + SAT32 and cloned in pQE-30; printed monomer Mw 29.8 kDa; also called CodY WT; wild-type CodY; source: E. coli M15 [pREP4], purified (Ni-NTA, desalted on PD10)
stoichiometry N [3]: 2
